The source of these data is publication PMC11083199, “Cytokine Receptor-like Factor 1 (CRLF1) and Its Role in Osteochondral Repair” (Cells, 2024).

The data set deals with the molecule itself. Put plainly: non-reducing and reducing SDS gel electrophoresis with immunoblot; conditioned medium of BMSCs transduced with AAV-CRLF1; NuPAGE SDS sample buffer without and with reducing agent, 70 °C for 10 min, 10% bis-Tris gels; blotted with antibodies specific for CRLF1 or CLC. Background: Immunoblotting shows a protein as a band on a membrane.

B1: Cytokine receptor-like factor 1 (CRLF1) (natural protein, human, UniProt O75462 38-422, looked up)
chain: AHTAVISPQDPTLLIGSSLLATCSVHGDPPGATAEGLYWTLNGRRLPPELSRVLNASTLALALANLNGSRQRSGDNLVCHARDGSILAGSCLYVGLPPEKPVNISCWSKNMKDLTCRWTPGAHGETFLHTNYSLKYKLRWYGQDNTCEEYHTVGPHSCHIPKDLALFTPYEIWVEATNRLGSARSDVLTLDILDVVTTDPPPDVHVSRVGGLEDQLSVRWVSPPALKDFLFQAKYQIRYRVEDSVDWKVVDDVSNQTSCRLAGLKPGTVYFVQVRCNPFGIYGSKKAGIWSEWSHPTAASTPRSERPGPGGGACEPRGGEPSSGPVRRELKQFLGWLKKHAYCSNLSFRLYDQWRAWMQKSHKTRNQDEGILPSGRRGTARGPAR
notes: Cytokine receptor-like factor 1, human, full-length cDNA cloned into an AAV vector; released into the medium by BMSCs; Full-length cDNA was cloned into the backbone pENN.AAV.CB7.Cl.eGFP.WPRE.rBG (Addgene 105542 is the vector, not this construct); Bands: ~110 kDa non-reduced, 55 kDa reduced; also called CRLF1dim; CRLF1mon; source: human BMSCs transduced with AAV containing CRLF1, in conditioned …
One may read the stoichiometry N as the number of molecules, sites or subunits per partner or assembly. Take B1: the “stoichiometry N” value is 2.
